Values joined by “and” are separate entries in the source; they are usually repeats but may differ in a detail not shown here. Equal values may be shown once.
How the values were obtained:
[1] = system: toxic myocarditis caused by Adriamycin in rat; test: Myocardial pathologic scoring, Adriamycin rat model; assay type: in vivo, SD rat; conditions: Adriamycin 3.3 mg/kg iv weekly × 4, 5 weeks later
Method: (§1) Heart was extirpated after thoracotomy (auricle should be reserved), the heart weight was measured after dried with absorbent paper, ratio of heart weight/body weight calculated; outer diameter of the heart was measured at ½ site of the vertically standing heart; medium part of the left ventricle was crosswise cut open, maximal thickness of free wall of the left ventricle measured; the heart was fixed with 10% formaldehyde, paraffin embedded and HE stained, observation of the myocardial structure carried out under optic microscope, give out pathologic score.
Scoring could be performed between grade 1 and grade 2 or between grade 2 and grade 3, e.g. grade 1.5, grade 2.5 etc. 6.3.3.3 Determination of Hemodynamics Index

[2] = system: toxic myocarditis caused by Adriamycin in rat; test: Survival rate, Adriamycin caused toxic myocarditis rat model; assay type: in vivo, SD rat; conditions: Adriamycin 3.3 mg/kg iv once every week × 4, 5 weeks later
Method: rhNRG-1β was injected into the tail vein within 24 hours after the first injection of Adriamycin, the injection of rhNRG-1 β was carried out once daily for 10 days. Dosage was adjusted according to the body weight, volume of the drug administered was 0.2 ml/100 g.
Based on the <<Guidance Principle of New Drug Preclinical Experiment>>, 3.3 mg/kg of Adriamycin was injected into the tail vein, once per week for consecutive 4 injections, establishing Adriamycin caused toxic myocarditis rat model.
(§2) rhNRG-1 β was injected into the tail vein within 24 hours after the first injection of Adriamycin. During the experiment, animal survival was dynamically monitored, heart function indexes (maximal rate of pressure increase within left ventricle, […], maximal rate of pressure decrease within left ventricle, −dp/dt, systolic end pressure of left ventricle LVPmax, diastolic end pressure of left ventricle LVPmin) were monitored at the 5th week. Section was made from the heart tissue and pathological changes examined.
Situation of survival was recorded weekly and the survival rate of the various experimental groups was calculated. Survival rate (%)=survival animal number/number of experimental animals×100.

[3] = system: toxic myocarditis caused by Adriamycin in rat; test: Heart size (heart weight/body weight, wall thickness), Adriamycin rat model; assay type: in vivo, SD rat; conditions: Adriamycin 3.3 mg/kg iv once every week × 4, 5 weeks later
Method: as §1

[4] = system: toxic myocarditis caused by Adriamycin in rat; test: Serum troponin T (cTnT) level, Adriamycin rat model; assay type: in vivo, SD rat; conditions: Adriamycin 3.3 mg/kg iv once every week × 4, 5 weeks later
Method: 2 ml of arterial blood was withdrawn, serum extracted, frozen and stored at −20° C., determination of serum cTnT content was performed with electrochemistry irradiate method submitted to be carried out by Clinical Laboratory of Zhong Shan Hospital.

[5] = system: toxic myocarditis caused by Adriamycin in rat; test: Hemodynamics index, Adriamycin rat model; assay type: in vivo, SD rat; conditions: 5 weeks later
Method: as §2
Hemodynamics index such as carotid artery pressure, intra-ventricular pressure. dp/dt was measured with six lead physiology recorder. Major procedure: separate the right carotid artery, ligate its distal end and block its proximal end with arterial clamps, 20 G arteriovenous indwelling needle was inserted into the carotid artery, took out the medal stylet, loosened the artery clamps, push the plastic trocar further into appropriate depth, indwelled for 10 minutes, observed the wave style recorded by the physiology recorder, after it was stable, then recorded the carotid artery pressure and push the trocar further into the left ventricle, kept in place for 15 minutes, after it was stable, then recorded the dp/dt, −dp/dt, LVPmax and LVPmin.

[6] = system: Rhesus; test: Rhesus long-term toxicity study, 3 weeks iv plus 3 weeks convalescence; conditions: for heart rate in conscious animals (electrocardiography): every drug taken group
[7] = rat, Adriamycin 3.3 mg/kg iv once every week × 4
[8] = survived rat, Adriamycin 3.3 mg/kg iv weekly × 4

In the case of `COc1cccc2c1C(=O)c1c(O)c3c(c(O)c1C2=O)C[C@@](O)(C(=O)CO)C[C@@H]3O[C@H]1C[C@H](N)[C@H](O)[C@H](C)O1` [Adriamycin, reference compound], the relative morbidity rate [1] is reported as 100%, the survival rate [2] is reported as 15% and the Heart weight/body weight [3] is reported as 0.0031 ± 0.0001^. For the same molecule, the heart circumference [3] was 30.6 ± 0.1 mm, the “thickness of left ventricular wall” value [3] was 1.73 ± 0.16^ mm and the cTnT [4] was 0.2 ng/mL and 0.205 ± 0.072 ng/mL. The LVPmax [5, 7] was 106.1 ± 21.2 mmHg, the dp/dt [5, 7] was 2674 ± 446 mmHg/s and the LVPmin ([5]; rat, Adriamycin 3.3 mg/kg iv once every week × 4, in mmHg) was −10.0 ± 4.7. For the same molecule, the “−dp/dt” value ([5]; rat, Adriamycin 3.3 mg/kg iv once every week × 4, in mmHg/s) was −2141 ± 596, the “LVPmax as % of the normal value” [5, 8] was 58% and the “LVPmin as % of the normal value” [5, 8] was 37%. The “dp/dt as % of the normal value” [5, 8] was 43% and the “−dp/dt as % of the normal value” [5, 8] was 47%.

B1: rhNRG-1 β: Recombinant human neuregulin fragment of 61 amino acid (SEQ ID NO:4), 3 disulfide bonds, expressed in E. coli (protein, listed as Homo sapiens)
chain: SHLVKCAEKEKTFCVNGGECFMVKDLSNPSRYLCKCPNEFTGDRCQNYVMASFYKAEELYQ
modifications: Human neuregulin beta-2 fragment
B1 was tested, and the bone marrow smear ([6]; 7.5, 15, 75 μg/kg/d iv 3 weeks) was “No significant toxic pathologic changes”, the echocardiogram ([6]; 7.5, 15, 75 μg/kg/d iv 3 weeks) was “no significant abnormality in echocardiogram” and the fundus examination ([6]; 7.5, 15, 75 μg/kg/d iv 3 weeks) was “No abnormal changes”. The “hematological, biochemistry examination, urine and fecal testing” value ([6]; 7.5, 15, 75 μg/kg/d iv 3 weeks) was “no significant toxicological changes”, the organ weight ([6]; 7.5, 15, 75 μg/kg/d iv 3 weeks) was “No abnormal changes in organ weight” and the body temperature ([6]; all animals, prior to and after the drug administration) was “no significant changes of body temperature”. The “site of drug injection” value ([6]; drug taken groups) was “mild paleness, hardening of regional skin and vessels”, the “general symptoms, gastrointestinal” value ([6]; each drug taken group, 1 week after the beginning of drug administration) was “Vomiting, nausea and salivation occurred in part of the animals” and the “heart rate in conscious animals (electrocardiography)” value ([6]; 3-week of drug administration) was “significant reduction of heart rate”. For the same molecule, the “heart rate in conscious animals (electrocardiography)” value ([6]; 10-day of drug administration) was “no significant deceleration of heart rate”, the myocardium pathohistology ([6]; high dosage 75 μg/kg/d iv 3 weeks) was “could cause vacuole in the cytoplasma of myocardium” and the food ingestion ([6]; high dosage group 75 μg/kg/d) was “reduced significantly”. For the same molecule, the body weight ([6]; high dosage group 75 μg/kg/d, self-comparison prior to and after drug) was “lowered markedly”, the recovery of hydrocephalus ([6]; high dosage group, 3 weeks after drug withdrawal) was “did not recover entirely” and the “dosage level that did not cause pericardial effusion and hydrocephalus” value ([6]; iv daily 3 weeks, 3-week's convalescent period) was 7.5 µg/kg/day.

Source: patent US9555076B2, “Neuregulin based methods and compositions for treating cardiovascular diseases” (Zensun (Shanghai) Science & Technology, Co., Ltd., priority 2002, dated 2017)
